Measured values as given in PMC9975281, “Enolpyruvate transferase MurAA^A149E, identified during adaptation of Enterococcus faecium to daptomycin, increases stability of MurAA–MurG interaction” (The Journal of Biological Chemistry, 2023).

How the values were obtained:
[1] = molecular target: T1, MurAA (Enterococcus faecium, UniProt A0A133CTP6); assay: ([…] Å); MST in the presence of UDP-GlcNAc; assay type: binding
T1 construct: gene murA; full-length

[2] = molecular target: T2, MurAA^A149E (Enterococcus faecium, UniProt A0A133CTP6, A149E); assay: microscale thermophoresis in the presence of UDP-GlcNAc; assay type: binding
T2 construct: gene murA; full-length

[3] = molecular target: T1, MurAA; assay: X-ray crystal structure ([…] Å), co-purified ligand, weak/partial density; assay type: binding
[4] = molecular target: Enterococcus faecium MurG (Enterococcus faecium) (UniProt Q3Y2H8); assay: MST; 50 nM His-MurG labelled with RED-tris-NTA, serial dilution of MurAA^WT (402 uM to 12.3 nM) or MurAA^A149E (69.9 uM to 2.13 nM); 20 mM Hepes pH 7.5, 150 mM NaCl, 0.05% Tween; Monolith NT.115; triplicate
[5] = system: C=C(OP(=O)(O)O)C(=O)O; assay: purified protein; settings: covalently bound within the active site at Cys119
[6] = system: C=C(OP(=O)(O)O)C(=O)O; assay: steady-state kinetics (Km), EnzChek phosphate assay; assay type: biochemical, Enterococcus faecium

`C[C@@H]1O[C@@H]1P(=O)(O)O` [FOS, fosfomycin] gave a Kd [1] of 1870 ± 670 nM and a Kd [2] of 470 ± 60 nM.
In the case of `CC(=O)N[C@H]1[C@@H](OP(=O)(O)OP(=O)(O)OC[C@H]2O[C@@H](n3ccc(=O)[nH]c3=O)[C@H](O)[C@@H]2O)O[C@H](CO)[C@@H](O)[C@@H]1O[C@H](C)C(=O)O` [UDP-MurNAc], the “X-ray crystal structure (2.65 Å), co-purified ligand, weak/partial density” value [3] is reported as “Cys119-PEP adduct and UDP–MurNAc at the interface of two domains in E. faecium MurAA”.
“Enterococcus faecium MurAA, wildtype (UDP-N-acetylglucosamine enolpyruvate transferase) (enzyme)” gave a Kd [4] of 27700 nM.
With “Enterococcus faecium MurAA^A149E (enzyme)” the Kd [4] was 1720 nM.
MurAA (Enterococcus faecium) was tested, and the Km [5] was 6.35 ± 0.88 µM and the kcat [5] was 1.81 ± 0.06 s⁻¹.
For “MurAA^A149E (Enterococcus faecium; A149E)”, the Km [6] was 7.26 ± 1.05 µM and the kcat [6] was 1.04 ± 0.04 s⁻¹.
